According to publication PMC5993284, “Peptide inhibitors of the anaphase promoting-complex that cause sensitivity to microtubule poison” (PLoS ONE, 2018):
Entries after “also recorded” stand apart in the source; their conditions may differ.

B1: Cdc20-106 (P209Q): spindle checkpoint by-pass mutant allele of Cdc20, P209Q (protein)
chain: MPESSRDKGNAAISGNRSVLSIASPTKLNILSSDWSRNQGKVSKNSLKRSSSLNIRNSKRPSLQASANSIYSRPKITIGAPPLIRRDSSFFKDEFDAKKDKATFSAYSSRSYPTIGSESVVSQTSLSQPTTSREVDEQFTVAADRYIPILQGASQNKVDPETLHEALPPPNASPISHLRAQTKIVFKQNVAEACGLDMNKRILQYMPEQPKCSSLRQKSYIMKKRTHYSYQQEQKIPDLIKLRKINTNPERILDAPGFQDDFYLNLLSWSKKNVLAIALDTALYLWNATTGDVSLLTDFENTTICSVTWSDDDCHISIGKEDGNTEIWDVETMSLIRTMRSGLGVRIGSLSWLDTLIATGSRSGEIQINDVRIKQHIVSTWAEHTGEVCGLSYKSDGLQLASGGNDNTVMIWDTRTSLPQFSKKTHTAAVKALSWCPYSPNILASGGGQTDKHIHFWNSITGARVGSINTGSQVSSLHWGQSHTSTNGGMMNKEIVATGGNPENAISVYNYETKFKVAEVVHAHEARICCSQLSPDGTTLATVGGDENLKFYKIFDPRCTGRSREDGLMDGMLGLIGKEGCRTNDKENRSKNSSEIHTRRPSSTSQYLIR

Legend:
APC/C^Cdc20 = biological target: T1, APC/C^Cdc20 (Saccharomyces cerevisiae, UniProt P16522+P53886); experiment: biochemical; assay type: biochemical; conditions: 220 μM peptide; 35S-Pds1 substrate; time course 0-60 minutes; vs buffer only; n = 3
T1 construct: constructed within full-length Cdc20 by site-directed mutagenesis for analysis in vitro in the APC/C^Cdc20 assay; The APC/C was purified for enzyme assays from 1 mL of TAP-tagged Cdc16 yeast extract (SCSY51); made in house; host or cells: Cdc20: in vitro transcription/translation in rabbit reticulocyte lysate, used unpurified; APC/C: S. cerevisiae strain SCSY51 (Cdc16-TAP) extract, captured on IgG magnetic beads
How it was run: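 Bead-bound TAP-Cdc16 yeast APC/C was mixed with IVT-made Cdc20 or Cdh1, pre-incubated 1 h at rt with checkpoint proteins or inhibitor peptides, plus pre-charged E1/E2/ATP/ubiquitin and ^35S-Pds1 in 20 mM HEPES pH 8.0, 100 mM NaCl, 1 mM MgCl2. Time points were stopped in SDS buffer and resolved by SDS-PAGE.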

APC/C [1] = experiment: Biotinylated peptide pull-down of purified APC/C, Western blot; assay type: binding, Saccharomyces cerevisiae; conditions: 20 μM biotinylated peptide, purified yeast APC/C, 1 h at 4 °C, streptavidin/Avidin beads, n = 3
Experimental: For APC/C purification, the APC/C which contain Cdc16-TAP-tag was isolated from 2 mL arrested yeast lysate by 120 μL IgG sepharose 6 Fast Flow beads (GE Healthcare Life Sciences) and incubate for 2 h at 4 °C on a rotating wheel. Beads were collected washed with 5 mL of APC/C wash buffer (200 mM Hepes pH8.0, 150 mM NaCl, 10% glycerol). Beads were resuspended in 150 μL of APC/C wash buffer contain 17.6 units of AcTEV protease (Invitrogen, Carlsbad, CA) at 4°C for 3 h with pipetting every 20 minutes. The purified APC/C was collected in the flow-through.
For APC/C binding assays, 20 μM biotinylated peptides or 20 μM peptides only as a negative control were incubated with purified APC/C and 100 μL APC/C wash buffer which contains phosphatase inhibitors (200 mM Hepes pH 8.0, 150 mM NaCl, 10% glycerol, 10 mM NaF, 1 mM NaVO4, 5 mM Na-pyrophosphate, 10 mM 2-glycerol phosphate) for 1 h at 4 °C. The mixtures were applied to 120 μL streptavidin beads (Dynabeads MyOne Streptavidin T1, Invitrogen) for 30 min at 4 °C with gentle pipetting every 10 min. Beads were washed with 1 mL of PBST buffer (Phosphate buffer saline and 0.1% Tween 20) three times SDS-PAGE protein sample was added directly. For APC/C binding competition experiments, the biotinylated peptide and 10-fold excess non-biotinylated peptides were added to purified APC/C at same time.
Free D-biotin in 10% DMSO was used for the control binding assays. For pre-coating APC/C with biotin, a modified APC/C purification was performed. 2 mL yeast lysate was incubated with 120 μL IgG Sepharose beads and additional 20.4 μM free biotin or non-biotin solvent as a positive control was added and samples were incubated for 2 h at 4 °C on a rotating wheel. Purified pre-coated APC/C was then removed from the IgG Sepharose following the standard purification procedure. 20 μM biotinylated peptides or 20 μM peptides as a negative control were incubated with pre-coated APC/C and 100 μL APC/C wash buffer which contain phosphatase inhibitors for 1 h at 4 °C. In addition, 20 μM biotinylated peptide was added and incubated with pre-coated APC/C in a non-biotin containing solvent as positive control. Pre-coated APC/C binding procedures were same as above. For pre-coating streptavidin beads with biotin, streptavidin beads were washed in the presence of 10.2 nmol/mL D-biotin in PBST buffer or non-biotin solvent as a positive control before use. Pre-coated streptavidin beads were incubated with purified APC/C-peptide complexes with an extra […] biotin for 30 minutes with gentle pipetting every 10 min at 4 °C.
Proteins were separated in SDS-PAGE gels and then were transferred to PVDF membrane. Blocking was performed by incubating samples in 20 mL PBST with 5% milk at 4 °C. Rabbit anti-tap (Thermo, CAB1001) was used as primary antibodies at a 1:1000 dilution and incubated for 2 hours at RT. Anti-rabbit HRP (Jackson, USA) was then used as secondary antibody at 1:5000 dilution and incubate for 1 hr at RT. Chemiluminescence signals were detected using an ImageQuant LAS 4000 (GE Healthcare Bio-Sciences, USA). For cell cycle timing Western blots anti-MYC and anti-Actin antibodies were employed (ABCAM, UK).

APC/C^Cdh1 = APC/C^Cdh1 enzyme assay (ubiquitination of 35S-Pds1); assay type: biochemical, Saccharomyces cerevisiae; conditions: 220 μM peptide; 35S-Pds1 substrate; time course 0-60 minutes; vs buffer; n = 3
Experimental: Full-length, radio-labeled protein purifications were preformed as previously described. ^35S-Pds1 was prepared in a 500 μL IVT/T (In Vitro Transcription/Translation) reaction (Promega, USA), which contained 400 μL rabbit reticulocyte lysate, 20 μL of L-^35S-methionine (PerkinElmer, USA), 10 μg of plasmid DNA, and the remaining volume as nuclease-free ddH2O as recommended by the manufacturer. The reaction mixture was incubated for 2 hours at room temperature and gently mixed every 30 minutes. The reaction was added to pre-equilibrated IgG Sepharose beads (GE Healthcare, USA) in Bio-spin disposable chromatography columns (Bio-Rad, USA) for binding for 2 hours at room temperature. To ensure efficient binding, the beads were re-suspended several times every 30 minutes. After binding, the beads were washed with 5 mL wash buffer, containing 200 mM 4-(2-hydroxyethyl)-1-piperazineethanesulfonic acid (HEPES) at pH 8.0, 150 mM NaCl, 10% (v/v) glycerol, and 1 mM dithiothreitol (DTT). The ^35S-Pds1 was cleaved from the beads using TEV (Tobacco Etch Virus) protease in 1x TEV buffer (Invitrogen, USA) for 2 hours at room temperature, and the mixture was re-suspended several times every 30 minutes to promote efficient cleavage. The elution was collected and concentrated by employing an Amicon Ultra filter column (Millipore, Ireland). The concentrated ^35S-Pds1 was collected in a new tube, and stored at -20 °C.
(§1) The production of Cdc20 or Cdh1 was prepared by IVT/T reactions, where 16 μL of rabbit reticulocyte lysate, 20 μM L-methionine, 0.4 μg of plasmid DNA, and a volume of nuclease-free ddH2O for a total volume of 20 μL. This freshly synthesized Cdc20 or Cdh1 protein was used directly in all APC/C assays after a 1-hour synthesis reaction at room temperature. The APC/C was purified for enzyme assays from 1 mL of TAP-tagged Cdc16 yeast extract (SCSY51) where extract was mixed with 50 μL 50:50 slurry magnetic beads (Invitrogen, Norway) for 2 hours at 4 °C. After incubation, the beads were washed with 3 mL APC/C wash buffer (200 mM of HEPES, 150 mM of NaCl and 10% (v/v) of glycerol). APC/C bound to IgG magnetic beads was used directly in the enzyme assays.
APC/C assays were performed by adding the reaction contents in following order: 4.3 μL of QAH buffer, 20 μL of rabbit reticulocyte lysate containing Cdc20 or Cdh1 with or without an additional volume of recombinant checkpoint protein(s) or inhibitor peptides, 2.4 μL ubiquitin aldehyde (Boston Biochem, USA), APC/C, 16 μL pre-charged E1/E2/ATP/ubiquitin mix, and 13.3 μL of ^35S-Pds1 with QAH buffer (20 mM HEPES at pH 8.0, 100 mM NaCl, and 1 mM MgCl2). […]

APC/C [2] = experiment: APC/C activity promoted by mutant Cdc20 alleles in the presence of Mad2 (Pds1 remaining); assay type: biochemical, Saccharomyces cerevisiae; conditions: 5.0 μM Mad2, n = 3
Experimental: as §1
APC/C assays were performed by adding the reaction contents in following order: 4.3 μL of QAH buffer, 20 μL of rabbit reticulocyte lysate containing Cdc20 or Cdh1 with or without an additional volume of recombinant checkpoint protein(s) or inhibitor peptides, 2.4 μL ubiquitin aldehyde (Boston Biochem, USA), APC/C, 16 μL pre-charged E1/E2/ATP/ubiquitin mix, and 13.3 μL of ^35S-Pds1 with QAH buffer (20 mM HEPES at pH 8.0, 100 mM NaCl, and 1 mM MgCl2). The E1/E2/ATP/ubiquitin mix were pre-charged by mixing 1 μL of E1 (Boston Biochem, USA), 1 μL of E2 (Boston Biochem, USA), 14.4 μL of ATP, 14.4 μL of […] (Boston Biochem, USA), and 17.2 μL of QAH buffer and incubated for 15 minutes at room temperature. Approximately 15 μL of samples were taken out at each time point, and the reaction was stopped by the addition of 2x protein sample buffer (125 mM Tris-HCl pH 6.8, 4% SDS, 20% glycerol, and 0.002% bromophenol blue, with 10% (final v/v) 2-mercaptoethanol added in fresh directly before use).
For inhibitor titration and time-course experiments, recombinant Bub3, Mad2, Mad3, and the Mad3-Bub3 complex were expressed and purified as previously described. Inhibitory peptides were synthesized by standard procedures and purified to 99% purity by HPLC (Kelowna International Scientific Inc., Taiwan). For inhibition of APC/C the co-factor Cdc20 or Cdh1 was made fresh by IVT/T, and pure recombinant checkpoint proteins or inhibitor peptides were added to the IVT/T mixture and incubated for an additional hour at room temperature. In titrations, a dilution series of the checkpoint protein(s) were made before incubation with the Cdc20 co-factor. […]
Our first goal was to measure the ability of the mutant alleles to promote APC/C activity in vitro. To ensure any observed change in APC/C activity reflected a change in function, and not a change in the amount of Cdc20 co-factor protein produced by IVT/T, the amounts of Cdc20 protein produced by IVT/T was measured, and no significant difference was observed (S4 Table). […]

Molecule | inhibition of APC/C^Cdc20 activity (in words) (APC/C^Cdc20) | binding to APC/C (in words) (APC/C [1]) | inhibition of APC/C^Cdh1 activity (in words) (APC/C^Cdh1) | ability of mutant Cdc20 to promote APC/C activity in the presence of Mad2 (in words) (APC/C [2]) | ability of mutant Cdc20 to promote APC/C activity in the presence of Mad2 (in words) (APC/C [2]; listed as Cdc20-106)
hp31: 39 amino acid residue human peptide derived from human p31^comet amino acid residues 219–258 (RNCGEDWFRPKLNYRVPSRGHKLTVTLSCGRPSIRTTAWE; UniProt Q15013 219-258, looked up, fragment) | inhibited both budding yeast APC/C^Cdc20; also recorded: inhibits yeast APC/C^Cdc20 | bound to budding yeast APC/C directly; also recorded: can pull-down budding yeast APC/C at 20 μM peptide | inhibited both budding yeast APC/C^Cdc20 (Fig 13B) and APC/C^Cdh1; also recorded: inhibits yeast APC/C^Cdh1 | – | –
B1 | – | – | – | consistently displayed APC activity in the presence of Mad2 | promote APC/C activity at the same level as control reactions even in the presence of 5.0 μM Mad2
